The record followed here is patent US20230340152A1 (published 2023).

Test [1] has as its target T1, CD73 construct with chicken N- and C-terminal domain sequence with human V144 and N185 knocked in (chicken; human).
T1 chain: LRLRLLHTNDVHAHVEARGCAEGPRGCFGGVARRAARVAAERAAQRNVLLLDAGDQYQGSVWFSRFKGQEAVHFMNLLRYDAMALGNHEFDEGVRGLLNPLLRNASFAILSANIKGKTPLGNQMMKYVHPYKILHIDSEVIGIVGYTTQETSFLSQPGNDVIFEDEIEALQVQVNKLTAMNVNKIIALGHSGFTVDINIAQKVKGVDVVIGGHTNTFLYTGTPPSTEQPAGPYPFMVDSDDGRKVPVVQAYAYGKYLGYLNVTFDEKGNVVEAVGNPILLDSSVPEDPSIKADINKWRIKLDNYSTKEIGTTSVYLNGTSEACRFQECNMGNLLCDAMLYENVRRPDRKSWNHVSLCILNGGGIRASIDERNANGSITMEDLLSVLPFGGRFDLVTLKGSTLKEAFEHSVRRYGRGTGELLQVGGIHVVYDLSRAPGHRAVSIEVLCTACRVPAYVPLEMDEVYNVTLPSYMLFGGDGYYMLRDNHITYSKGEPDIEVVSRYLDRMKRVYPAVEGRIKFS
Kind of test: SPR, MEDI9447 dilutions from 5 nM to 0.3 nM. The source says: FIG. 24C depicts a close-up of the epitope residues located within the N-terminal domain of CD73. The most important residues for binding are shown highlighted and less impactful positions (Y135, K136, and N187) are in pink. The HDX interface is overlaid in blue. FIG. 24D depicts a surface representation showing that the epitope forms a near contiguous binding surface. FIG. 24E depicts a crystal structure of the open conformation of CD73 showing the position of the epitope at the apical, lateral surface of the N-terminal domain. […] In all crystal structures, the CD73 N-terminal domain, linker region, and C-terminal domain are depicted in yellow, orange, and blue, respectively.
Binding of MEDI9447 to wild-type and mutant CD73 proteins was measured by surface plasmon resonance (SPR) using a ProteOn instrument (BioRad). CD73 crude cell supernatant protein samples were diluted to 3 µg/ml in PBS, 0.005% Tween-20, pH 7.4 (BioRad) and immobilized to ~400 RU on a HTG tris-NTA sensor chip (BioRad) pre-activated with 10 mM NiSO₄, 10 mM MES, pH 6.0 (BioRad). […] Sensorgrams were recorded by flowing two-fold dilutions of MEDI9447 prepared in PBS, 0.005% Tween-20, pH 7.4, ranging from 5 nM to 0.31 nM. […] Antibody binding was measured at a flow rate of 100 µL/min with a 3 min association phase and 20 min dissociation phase. […] Binding kinetics were analyzed using the ProteOn data analysis software. […]

The target of test [2] is T2, Murine CD73 on cells (4T1, Jurkat mCD73 knock-in) (murine, UniProt Q61503 29-551).
T2 construct: whole, on cells; also called 4T1 (murine)
T2 sequence (looked up): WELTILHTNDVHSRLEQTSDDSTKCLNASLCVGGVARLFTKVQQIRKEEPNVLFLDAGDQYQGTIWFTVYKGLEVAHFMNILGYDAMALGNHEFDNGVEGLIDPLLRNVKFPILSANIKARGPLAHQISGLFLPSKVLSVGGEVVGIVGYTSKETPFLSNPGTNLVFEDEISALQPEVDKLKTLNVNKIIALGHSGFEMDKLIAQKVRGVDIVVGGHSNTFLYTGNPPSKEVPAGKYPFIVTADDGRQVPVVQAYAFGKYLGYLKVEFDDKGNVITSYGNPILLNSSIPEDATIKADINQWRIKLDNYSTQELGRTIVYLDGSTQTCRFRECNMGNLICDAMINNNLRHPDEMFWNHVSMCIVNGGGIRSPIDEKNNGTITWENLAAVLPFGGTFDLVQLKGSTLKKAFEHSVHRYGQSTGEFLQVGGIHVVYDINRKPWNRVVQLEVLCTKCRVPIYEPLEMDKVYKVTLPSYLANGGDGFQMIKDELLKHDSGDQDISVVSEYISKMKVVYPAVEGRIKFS
Briefly: flow cytometry, 4T1 / 4T1(mCD73 -shRNA). Background: A flow cytometer gives signals particle by particle.

The target in test [3] is T2, Murine CD73 on cells (4T1, Jurkat mCD73 …). Briefly: flow cytometry, Jurkat (mCD73 knock-in) / Jurkat.
Test [4] has as its target T3, Human CD73 on cells (MDA-MB-231, Jurkat CD73 knock-in, NCI-H322) (human, UniProt P21589 27-549).
T3 construct: GPI-anchored native protein; also called native human CD73
T3 sequence: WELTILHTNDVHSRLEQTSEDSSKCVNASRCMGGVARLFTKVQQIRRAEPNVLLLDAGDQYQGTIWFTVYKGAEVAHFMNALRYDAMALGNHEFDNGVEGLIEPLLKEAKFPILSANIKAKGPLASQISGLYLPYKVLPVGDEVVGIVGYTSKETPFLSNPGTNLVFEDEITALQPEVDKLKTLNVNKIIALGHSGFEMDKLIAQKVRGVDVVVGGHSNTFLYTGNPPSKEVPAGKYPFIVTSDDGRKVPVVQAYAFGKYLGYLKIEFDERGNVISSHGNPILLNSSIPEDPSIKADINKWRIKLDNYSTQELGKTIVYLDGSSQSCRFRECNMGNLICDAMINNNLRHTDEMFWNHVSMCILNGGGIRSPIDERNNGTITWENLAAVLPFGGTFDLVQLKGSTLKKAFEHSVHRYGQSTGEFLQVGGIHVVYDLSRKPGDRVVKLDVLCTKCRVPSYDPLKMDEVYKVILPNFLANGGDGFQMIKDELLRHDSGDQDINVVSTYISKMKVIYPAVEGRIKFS
Kind of test: flow cytometry, MDA-MB-231 / MDA-MB-231(CD73-shRNA).

B1: MEDI9447 (antibody, human IgG1, lambda, V domains shown)
VH: EVQLLESGGGLVQPGGSLRLSCAASGFTFSSYAYSWVRQAPGKGLEWVSAISGSGGRTYYADSVKGRFTISRDNSKNTLYLQMNSLRAEDTAVYYCARLGYGRVDEWGRGTLVTVSS
VL: QSVLTQPPSASGTPGQRVTISCSGSLSNIGRNPVNWYQQLPGTAPKLLIYLDNLRLSGVPDRFSGSKSGTSASLAISGLQSEDEADYYCATWDDSHPGWTFGGGTKLTVLG
notes: Human IgG1-TM (L234F, L235E, P331S), lambda light chain; also called clone 10.3 antibody; 73combo3
Regarding B1, the “fold of the KD for wild-type CD73” value in test [1] is < 20 fold. Also, the “Mean Fluorescence Intensity Ratio (MFIR)” value came to 3.9 in test [2], 57.1 in test [3] and 3.5 in test [4].
